Measurements taken from patent publication EP4242225A1 (Consejo Superior De Investigaciones Científicas, dated 2023).
Like-named read-outs stand apart in the source and are kept apart here.

Key:
[1] = target: T1, RBD-FH, monomeric RBD (332-534) with a FLAG peptide and an 8xHis-tag at the C-terminus (SARS-CoV-2, UniProt P0DTC2 332-534)
[2] = target: S protein of SARS-CoV-2 on pseudotyped retroviral particles (Spp) (SARS-CoV-2, UniProt P0DTC2 14-1273); experiment: cell-based or functional assay
[3] = target: T1, RBD-FH, monomeric RBD (332-534) with a …; remark: listed apart in the source
[4] = target: T2, monomeric RBD of SARS-CoV-2 S (WA1) (SARS-CoV-2, UniProt P0DTC2 332-534); experiment: ELISA, hcAb dilutions on plate-bound monomeric RBD
T2 construct: domain: RBD

[5] = target: T3, RBD-Fc, Wuhan strain (WA1) (SARS-CoV-2; human, UniProt P0DTC2 332-534); experiment: ELISA, biotin-labeled bispecific hcAb on plate-bound RBD-Fc
T3 construct: range 332-534; also called WA1 RBD; WA1 RBD-Fc

Binder | Kd [1] [nM] | koff [1] [s⁻¹] | kon [1] [M⁻¹ s⁻¹] | inhibition of Spp entry into Vero-E6 cells (luciferase, 48 h.p.i.) [2] [%] | Kd [3] [nM] | koff [3] [s⁻¹] | kon [3] [M⁻¹ s⁻¹] | also measured
hcAb 2.1 (Fc fusion, also called 2.1Fc) heavy: QVQLVESGGGSVQAGGSLRLSCAAFGATISSAHMGWFRQAPGKEREGVAFRYTDGSSTYYTTSVRGRFTISQDNAKNTVYLQMNSLKPEDTAMYYCASNPSWGRLVGGQYNNWGQGTQITVSS | 0.36 | 0.000281 | 771000 | > 90 | – | – | – | –
Nb 2.1 (VHH) VHH: QVQLVESGGGSVQAGGSLRLSCAAFGATISSAHMGWFRQAPGKEREGVAFRYTDGSSTYYTTSVRGRFTISQDNAKNTVYLQMNSLKPEDTAMYYCASNPSWGRLVGGQYNNWGQGTQITVSS | – | – | – | – | 1.74 | 0.00233 | 1.34e+06 | –
hcAb 2.15 (Fc fusion) heavy: QVQLVESGGGSVQAGGSLKLSCAASGYASWARKCIGWFRQAPGQEREGVAAIFDFDGSTYYSDSVKGRFTISGDNAKNTVSLQMNSLLPKDTAVYYCTVAFGTCDNWYRGRGDYWGQGTQVTVSS | – | – | – | > 90 | – | – | – | –
hcAb 1.16 (Fc fusion, also called 1.16Fc) heavy: QVQLVESGGGSVQAGGSLRLSCAASGNTSKRKCVGWFRRAPGKEREGVTLIYTVGGSTVYADSVKGRFTISQDNAKDTVYLQMNSLKPEDSAMYYCAAESWGRQCNLETHRFTFWGQGTQVTVSS | 0.25 | 0.000438 | 1.72e+06 | – | – | – | – | –
Nb 1.16 (VHH) VHH: QVQLVESGGGSVQAGGSLRLSCAASGNTSKRKCVGWFRRAPGKEREGVTLIYTVGGSTVYADSVKGRFTISQDNAKDTVYLQMNSLKPEDSAMYYCAAESWGRQCNLETHRFTFWGQGTQVTVSS | – | – | – | – | 3.59 | 0.00705 | 1.96e+06 | –
hcAb 1.29 (Fc fusion) heavy: QVQLVESGGGSVQAGGSLRLSCAASGYTINTDAVAWFRQAPGKGDERVAVIYTGSGNTNYADSVKGRFTISQDNAKNTVYLQMNSLKPEDTALYYCASGYYGASGYDFNNWGQGTQVTVSS | 0.63 | 0.000221 | 353000 | ≥ 90 | – | – | – | EC50 [4]: 35 nM
Nb 1.29 (VHH) VHH: QVQLVESGGGSVQAGGSLRLSCAASGYTINTDAVAWFRQAPGKGDERVAVIYTGSGNTNYADSVKGRFTISQDNAKNTVYLQMNSLKPEDTALYYCASGYYGASGYDFNNWGQGTQVTVSS | – | – | – | – | 12.9 | 0.00614 | 476000 | –
Nb 2.11 (VHH) VHH: QVQLVESGGGSVQAGGSLRLSCAASGDASNRKCVSWFRRAPGKEREGVALIFPVGSSTAYADSVKGRFTISQDSAKDTVYLQMNNLKPEDSGTYYCAAVSWGGRCNLETQTVTFWGQGTQVTVSS | – | – | – | – | 1.72 | 0.0054 | 3.15e+06 | –
hcAb 2.11 (Fc fusion, also called 2.11Fc) heavy: QVQLVESGGGSVQAGGSLRLSCAASGDASNRKCVSWFRRAPGKEREGVALIFPVGSSTAYADSVKGRFTISQDSAKDTVYLQMNNLKPEDSGTYYCAAVSWGGRCNLETQTVTFWGQGTQVTVSS | 0.16 | 0.0003 | 1.82e+06 | – | – | – | – | –
bispecific hcAb 1.29-1.10 (bispecific antibody) heavy: QVQLVESGGGSVQAGGSLRLSCAASGYTINTDAVAWFRQAPGKGDERVAVIYTGSGNTNYADSVKGRFTISQDNAKNTVYLQMNSLKPEDTALYYCASGYYGASGYDFNNWGQGTQVTVSSGGGGSGGGGSGGGGSQVQLVESGGGSVQAGGSLRLSCAASGYTYSTCRKGWYRQAPGKERELVASITADGATYYLDSVKGRLTISQDNAKNTVYLQMNSLKPEDTAVYYCAASVKDFTCTFNSWGQGTQVTVSS | – | – | – | – | – | – | – | binding result [5]: binds
hcAb 2.20 (Fc fusion, also called 2.20Fc; 2.20 hcAb) heavy: QVQLVESGGGSVQAGGSLRLSCAASGYTYNNYYMGWFRQAPGKEREGVAAINSDGLDTYVADSVKGRFTISRDNAKDTVHLQMNSLKPEDTAIYSCATGRTVYYSGYDFRLSVDDYWGQGTQVTVSS | 0.21 | 0.000233 | 1.09e+06 | ≥ 90 | – | – | – | –
Nb 2.20 (VHH) VHH: QVQLVESGGGSVQAGGSLRLSCAASGYTYNNYYMGWFRQAPGKEREGVAAINSDGLDTYVADSVKGRFTISRDNAKDTVHLQMNSLKPEDTAIYSCATGRTVYYSGYDFRLSVDDYWGQGTQVTVSS | – | – | – | – | 0.77 | 0.00101 | 1.3e+06 | –
hcAb 1.26 (Fc fusion) heavy: QVQLVESGGGLVQAGGSLRLSCAATGYTWSSVCMGWFRQAPGKEREGVAGIPSGRNRPYYADSVKGRFTISQDNAKNAVFLLMNSLKPEDTAIYYCAPCSAPHDPEYNYWGQGTQVTVSS | 0.08 | 0.000148 | 1.76e+06 | ≥ 90 | – | – | – | EC50 [4]: 1 nM
Nb 1.26 (VHH) VHH: QVQLVESGGGLVQAGGSLRLSCAATGYTWSSVCMGWFRQAPGKEREGVAGIPSGRNRPYYADSVKGRFTISQDNAKNAVFLLMNSLKPEDTAIYYCAPCSAPHDPEYNYWGQGTQVTVSS | – | – | – | – | 0.26 | 0.000624 | 2.44e+06 | –
hcAb 1.10 (Fc fusion) heavy: QVQLVESGGGSVQAGGSLRLSCAASGYTYSTCRKGWYRQAPGKERELVASITADGATYYLDSVKGRLTISQDNAKNTVYLQMNSLKPEDTAVYYCAASVKDFTCTFNSWGQGTQVTVSS | – | – | – | > 90 | – | – | – | –
